Data reported in US20180371086A1.

Molecular target: human CD3, on primary human T cells (human) (UniProt P07766)
Test: cell-based or functional assay

Sequence of human CD3, on primary human T cells (human) (P07766 23-207 limits assumed): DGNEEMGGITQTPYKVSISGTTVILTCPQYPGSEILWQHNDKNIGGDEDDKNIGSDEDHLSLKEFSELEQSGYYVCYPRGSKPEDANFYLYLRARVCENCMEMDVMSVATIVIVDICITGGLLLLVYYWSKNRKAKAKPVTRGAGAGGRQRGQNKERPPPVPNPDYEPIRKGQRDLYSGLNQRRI

Substance: PGT-121.60 (antibody)
- PD-1 EC50; CD4 T cells; donor D1597; 7552-infected CEM cells: > 100 µg/mL
- PD-1 EC50; CD4 T cells; donor D1597; THRO-infected CEM cells: > 100 µg/mL
- PD-1 EC50; CD4 T cells; donor D1597; uninfected CEM cells: > 100 µg/mL
- PD-1 EC50; CD4 T cells; donor D2256; 7552-infected CEM cells: > 100 µg/mL
- PD-1 EC50; CD4 T cells; donor D2256; THRO-infected CEM cells: > 100 µg/mL
- PD-1 EC50; CD4 T cells; donor D2256; uninfected CEM cells: > 100 µg/mL
- PD-1 EC50; CD4 T cells; donor D4246; 7552-infected CEM cells: > 100 µg/mL
- PD-1 EC50; CD4 T cells; donor D4246; THRO-infected CEM cells: > 100 µg/mL
- PD-1 EC50; CD4 T cells; donor D4246; uninfected CEM cells: > 100 µg/mL
- PD-1 EC50; CD4 T cells; donor D4279; 7552-infected CEM cells: > 100 µg/mL
- PD-1 EC50; CD4 T cells; donor D4279; THRO-infected CEM cells: > 100 µg/mL
- PD-1 EC50; CD4 T cells; donor D4279; uninfected CEM cells: > 100 µg/mL
- PD-1 EC50; CD8 T cells; donor D1597; 7552-infected CEM cells: > 100 µg/mL
- PD-1 EC50; CD8 T cells; donor D1597; THRO-infected CEM cells: > 100 µg/mL
- PD-1 EC50; CD8 T cells; donor D1597; uninfected CEM cells: > 100 µg/mL
- PD-1 EC50; CD8 T cells; donor D2256; 7552-infected CEM cells: > 100 µg/mL
- PD-1 EC50; CD8 T cells; donor D2256; THRO-infected CEM cells: > 100 µg/mL
- PD-1 EC50; CD8 T cells; donor D2256; uninfected CEM cells: > 100 µg/mL
- PD-1 EC50; CD8 T cells; donor D4246; 7552-infected CEM cells: > 100 µg/mL
- PD-1 EC50; CD8 T cells; donor D4246; THRO-infected CEM cells: > 100 µg/mL
- PD-1 EC50; CD8 T cells; donor D4246; uninfected CEM cells: > 100 µg/mL
- PD-1 EC50; CD8 T cells; donor D4279; 7552-infected CEM cells: > 100 µg/mL
- PD-1 EC50; CD8 T cells; donor D4279; THRO-infected CEM cells: > 100 µg/mL
- PD-1 EC50; CD8 T cells; donor D4279; uninfected CEM cells: > 100 µg/mL
- PD-1 Δ Emax; CD4 T cells; donor D1597; 7552-infected CEM cells: 0%
- PD-1 Δ Emax; CD4 T cells; donor D1597; THRO-infected CEM cells: 1%
- PD-1 Δ Emax; CD4 T cells; donor D1597; uninfected CEM cells: 0%
- PD-1 Δ Emax; CD4 T cells; donor D2256; 7552-infected CEM cells: -2%
- PD-1 Δ Emax; CD4 T cells; donor D2256; THRO-infected CEM cells: 1%
- PD-1 Δ Emax; CD4 T cells; donor D2256; uninfected CEM cells: 3%
- PD-1 Δ Emax; CD4 T cells; donor D4246; 7552-infected CEM cells: 2%
- PD-1 Δ Emax; CD4 T cells; donor D4246; THRO-infected CEM cells: 0%
- PD-1 Δ Emax; CD4 T cells; donor D4246; uninfected CEM cells: 0%
- PD-1 Δ Emax; CD4 T cells; donor D4279; 7552-infected CEM cells: 1%
- PD-1 Δ Emax; CD4 T cells; donor D4279; THRO-infected CEM cells: -2%
- PD-1 Δ Emax; CD4 T cells; donor D4279; uninfected CEM cells: -1%
- PD-1 Δ Emax; CD8 T cells; donor D1597; 7552-infected CEM cells: 0%
- PD-1 Δ Emax; CD8 T cells; donor D1597; THRO-infected CEM cells: 0%
- PD-1 Δ Emax; CD8 T cells; donor D1597; uninfected CEM cells: 0%
- PD-1 Δ Emax; CD8 T cells; donor D2256; 7552-infected CEM cells: 0%
- PD-1 Δ Emax; CD8 T cells; donor D2256; THRO-infected CEM cells: -1%
- PD-1 Δ Emax; CD8 T cells; donor D2256; uninfected CEM cells: 0%
- PD-1 Δ Emax; CD8 T cells; donor D4246; 7552-infected CEM cells: 0%
- PD-1 Δ Emax; CD8 T cells; donor D4246; THRO-infected CEM cells: 0%
- PD-1 Δ Emax; CD8 T cells; donor D4246; uninfected CEM cells: -1%
- PD-1 Δ Emax; CD8 T cells; donor D4279; 7552-infected CEM cells: 0%
- PD-1 Δ Emax; CD8 T cells; donor D4279; THRO-infected CEM cells: 0%
- PD-1 Δ Emax; CD8 T cells; donor D4279; uninfected CEM cells: 0%
